The record followed here is US20260263521A1, “ANTI-CD200R1 ANTIBODY AND USE THEREOF” (AIMED BIO INC., priority 2023, published 2026).

pEC50: −log10 of the molar value. Where only a bound is given, the exact number is not on record here.

Assay [1] deals with human CD200R1 expressed on cells (Jurkat-CD200R1, U937-CD200R1, HH cells) (human) (UniProt Q8TD46). Briefly: flow cytometry, HH cells; drawn table, row EC50.
The target is the same in assay [2]. The experiment in a line: flow cytometry, HH cells; drawn table.
The target is the same in assay [3]. Briefly: cell-based or functional assay.

Sequence of human CD200R1 expressed on cells (Jurkat-CD200R1, U937-CD200R1, HH cells) (human) (Q8TD46 25-348): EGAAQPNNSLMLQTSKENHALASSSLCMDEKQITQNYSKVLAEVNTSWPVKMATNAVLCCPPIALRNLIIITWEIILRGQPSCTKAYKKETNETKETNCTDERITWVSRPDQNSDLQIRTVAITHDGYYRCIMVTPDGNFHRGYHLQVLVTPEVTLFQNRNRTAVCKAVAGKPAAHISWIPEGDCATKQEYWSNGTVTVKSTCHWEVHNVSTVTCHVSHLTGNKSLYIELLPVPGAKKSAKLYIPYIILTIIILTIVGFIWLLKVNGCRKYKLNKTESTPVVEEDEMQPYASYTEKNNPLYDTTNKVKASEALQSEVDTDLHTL

As for IgG1 (antibody), in assay [1], the pEC50 is 6.09. Further, in assay [2], the Geo mean (%) at 0.05 nM was 0.8%, the Geo mean (%) at 0.19 nM was 0.8%, the Geo mean (%) at 0.78 nM is 0.8% and the Geo mean (%) at 3.125 nM amounted to 0.8%. In assay [2], the Geo mean (%) at 12.5 nM turned out to be 0.8%, the Geo mean (%) at 50 nM was determined as 1%, the Geo mean (%) at 200 nM came out at 1.9% and the Geo mean (%) at 800 nM is 3.5%.

For the substance “LY3454738 (US 2020/0087395, I-4P, Eli Lilly) (antibody)”, in assay [3], the EC50 (nM), degree of signal transduction by the Dok2 protein was over 10000 nM; the IC50 (nM) of IL-6 inhibition, LPS-treated U937-CD200R1 cells came out at 1.72 nM; the IC50 (nM) of TNF-α inhibition, LPS-treated U937-CD200R1 cells turned out to be 6.03 nM; the IL-6 (pg/ml) at log [Ab] (M) -7, LPS-treated U937-CD200R1 cells was 523 pg/ml. In addition, in assay [3], the IL-6 (pg/ml) at log [Ab] (M) -8, LPS-treated U937-CD200R1 cells is 1330 pg/ml; the IL-6 (pg/ml) at log [Ab] (M) -9, LPS-treated U937-CD200R1 cells was determined as 2670 pg/ml; the IL-6 (pg/ml) at log [Ab] (M) -10, LPS-treated U937-CD200R1 cells turned out to be 3380 pg/ml; the IL-6 (pg/ml) at log [Ab] (M) -11, LPS-treated U937-CD200R1 cells is 3550 pg/ml. In assay [3], this substance had an IL-6 (pg/ml) at log [Ab] (M) -12, LPS-treated U937-CD200R1 cells of 4530 pg/ml; an RLU (a.u.), phosphorylated Dok2 reporter, antibody dose 0.05 nM of 9260 a.u; an RLU (a.u.), phosphorylated Dok2 reporter, antibody dose 0.10 nM of 8400 a.u; an RLU (a.u.), phosphorylated Dok2 reporter, antibody dose 0.20 nM of 8000 a.u. In assay [3], this substance had an RLU (a.u.), phosphorylated Dok2 reporter, antibody dose 0.39 nM of 8960 a.u; an RLU (a.u.), phosphorylated Dok2 reporter, antibody dose 0.78 nM of 8900 a.u; an RLU (a.u.), phosphorylated Dok2 reporter, antibody dose 1.56 nM of 9100 a.u; an RLU (a.u.), phosphorylated Dok2 reporter, antibody dose 3.13 nM of 9470 a.u. In assay [3], this substance registered an RLU (a.u.), phosphorylated Dok2 reporter, antibody dose 6.25 nM of 8930 a.u; an RLU (a.u.), phosphorylated Dok2 reporter, antibody dose 12.5 nM of 13000 a.u; an RLU (a.u.), phosphorylated Dok2 reporter, antibody dose 25 nM of 22700 a.u; an RLU (a.u.), phosphorylated Dok2 reporter, antibody dose 50 nM of 25600 a.u. In assay [3], this substance displayed a TNF-α (pg/ml) at log [Ab] (M) -7, LPS-treated U937-CD200R1 cells of 472 pg/ml; a TNF-α (pg/ml) at log [Ab] (M) -8, LPS-treated U937-CD200R1 cells of 1040 pg/ml; a TNF-α (pg/ml) at log [Ab] (M) -9, LPS-treated U937-CD200R1 cells of 1480 pg/ml; a TNF-α (pg/ml) at log [Ab] (M) -10, LPS-treated U937-CD200R1 cells of 3760 pg/ml. In assay [3], this substance registered a TNF-α (pg/ml) at log [Ab] (M) -11, LPS-treated U937-CD200R1 cells of 4950 pg/ml and a TNF-α (pg/ml) at log [Ab] (M) -12, LPS-treated U937-CD200R1 cells of 5490 pg/ml.

In assay [3], “hIgG4 kappa isotype control (Crownvivo, #C0004) (antibody)” displayed an IL-6 (pg/ml) at log [Ab] (M) -7, LPS-treated U937-CD200R1 cells of 3510 pg/ml and a TNF-α (pg/ml) at log [Ab] (M) -7, LPS-treated U937-CD200R1 cells of 5090 pg/ml.
